According to patent publication US20100098693A1 (published 2010):
Each block holds one binder with its values, some of them ahead of it.

How the values were obtained:
[1] = target: T1, human insulin receptor extracellular domain (HIR ECD), lectin affinity purified from transfected CHO cells (human, UniProt P06213 28-956, limits assumed); experiment: ELISA, HIR ECD plated; printed as ED50 (second assay, run with the Gln-192 allozyme)
T1 construct: extracellular domain; Secreted ECD purified on a wheat germ agglutinin column
Protocol: (§1) The affinity of the HIRMAb-PON1 fusion protein for the HIR extracellular domain (ECD) was determined with an ELISA using the lectin affinity purified HIR ECD. Chinese hamster ovary (CHO) cells permanently transfected with the HIR ECD were grown in serum free media, and the HIR ECD was purified with a wheat germ agglutinin affinity column. The HIR ECD (0.2 ug/well) was plated on high binding 96-well plates, and the binding of the HIRMAb, or the HIRMAb-PON1 fusion protein to the HIR ECD was detected with a biotinylated goat anti-human IgG (H+L) antibody (0.3 μg/well), and the avidin-biotinylated peroxidase detection system.

[2] = target: T1, human insulin receptor extracellular …; experiment: ELISA, HIR ECD plated, detection with biotinylated anti-human IgG; printed as ED50 (assay of FIG. 4)
Protocol: as §1

[3] = target: T1, human insulin receptor extracellular …; experiment: ELISA, HIR ECD plated, detection with biotinylated anti-human IgG; printed as ED50 (assay of FIG. 4, Arg-192 allozyme)
Protocol: as §1

[4] = target: T1, human insulin receptor extracellular …; experiment: ELISA, HIR ECD plated; printed as ED50 (second assay, Gln-192 allozyme)
Protocol: as §1

EC50 [1]: 0.48 nM
EC50 [2]: 0.55 nM
B1: chimeric HIRMAb (chimeric monoclonal antibody to the human insulin receptor) (antibody, human IgG1, kappa)
heavy: not shown
light: DIQMTQSPSSLSASLGERVSLTCRASQDIGGNLYWLQQGPDGTIKRLIYATSSLDSGVPKRFSGSRSGSDYSLTISSLESEDFVDYYCLQYSSSPWTFGGGTKMEIKRTVAAPSVFIFPPSDEQLKSGTASVVCLLNNFYPREAKVQWKVDNALQSGNSQESVTEQDSKDSTYSLSSTLTLSKADYEKHKVYACEVTHQGLSSPVTKSFNRGEC
notes: Chimeric mouse/human IgG1 kappa; also called engineered HIRMAb

EC50 [3]: 1.1 nM
B2: HIRMAb-PON1 fusion protein, Arg-192 allozyme (PON1 fused to the carboxyl terminus of the HIRMAb heavy chain) (antibody)
heavy: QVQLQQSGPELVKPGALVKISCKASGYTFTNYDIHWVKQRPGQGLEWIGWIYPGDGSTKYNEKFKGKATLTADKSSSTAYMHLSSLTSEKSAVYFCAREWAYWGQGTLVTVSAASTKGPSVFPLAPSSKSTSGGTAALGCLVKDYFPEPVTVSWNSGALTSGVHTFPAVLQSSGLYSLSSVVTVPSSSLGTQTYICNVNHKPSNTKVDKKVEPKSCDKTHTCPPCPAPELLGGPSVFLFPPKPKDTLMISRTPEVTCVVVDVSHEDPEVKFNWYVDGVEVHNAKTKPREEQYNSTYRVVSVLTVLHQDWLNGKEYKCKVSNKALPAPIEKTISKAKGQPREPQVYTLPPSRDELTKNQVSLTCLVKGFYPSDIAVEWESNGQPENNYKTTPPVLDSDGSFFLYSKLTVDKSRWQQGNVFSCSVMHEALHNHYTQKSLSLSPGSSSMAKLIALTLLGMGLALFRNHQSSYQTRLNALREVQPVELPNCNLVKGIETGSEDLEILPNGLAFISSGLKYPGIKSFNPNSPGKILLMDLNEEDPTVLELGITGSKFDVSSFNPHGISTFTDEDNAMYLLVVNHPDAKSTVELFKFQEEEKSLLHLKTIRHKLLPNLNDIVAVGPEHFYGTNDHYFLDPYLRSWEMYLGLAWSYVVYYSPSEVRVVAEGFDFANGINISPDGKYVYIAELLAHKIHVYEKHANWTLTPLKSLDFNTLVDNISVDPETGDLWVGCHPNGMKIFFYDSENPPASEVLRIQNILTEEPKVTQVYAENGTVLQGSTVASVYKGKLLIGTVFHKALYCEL
light: B1 light
notes: IgG-enzyme fusion antibody

EC50 [4]: 0.96 nM
B3: HIRMAb-PON1 fusion protein, Gln-192 allozyme (antibody, human IgG1, kappa)
heavy: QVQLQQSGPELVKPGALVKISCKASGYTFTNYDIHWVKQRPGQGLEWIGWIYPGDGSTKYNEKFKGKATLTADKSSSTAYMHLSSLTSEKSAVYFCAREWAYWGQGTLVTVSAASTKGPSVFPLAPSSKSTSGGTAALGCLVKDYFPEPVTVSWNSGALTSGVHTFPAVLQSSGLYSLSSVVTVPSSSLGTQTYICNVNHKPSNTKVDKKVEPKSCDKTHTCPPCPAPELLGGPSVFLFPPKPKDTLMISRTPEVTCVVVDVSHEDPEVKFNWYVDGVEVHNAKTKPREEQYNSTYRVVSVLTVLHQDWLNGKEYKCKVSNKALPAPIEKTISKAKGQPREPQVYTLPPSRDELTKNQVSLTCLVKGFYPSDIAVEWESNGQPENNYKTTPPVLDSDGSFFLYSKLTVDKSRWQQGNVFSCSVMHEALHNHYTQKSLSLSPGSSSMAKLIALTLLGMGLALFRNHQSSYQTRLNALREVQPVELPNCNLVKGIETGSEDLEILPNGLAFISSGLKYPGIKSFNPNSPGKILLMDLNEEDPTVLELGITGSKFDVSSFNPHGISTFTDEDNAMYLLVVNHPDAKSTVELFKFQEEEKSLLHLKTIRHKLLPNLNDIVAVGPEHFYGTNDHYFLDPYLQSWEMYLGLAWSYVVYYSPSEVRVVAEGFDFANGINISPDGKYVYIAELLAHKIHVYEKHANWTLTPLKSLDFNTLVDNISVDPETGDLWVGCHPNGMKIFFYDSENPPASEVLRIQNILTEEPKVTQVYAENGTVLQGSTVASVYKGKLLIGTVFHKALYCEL
light: B1 light
